Assay results as given in patent US12194076B2, “Methods and compositions for treating myelofibrosis” (Acceleron Pharma Inc., priority 2016, dated 2025).
Values belong to the molecule of their own block, whether it stands above or below them.

Key:
[1] = system: anemic myelofibrosis patients; settings: cited from earlier work
Activin A [2] = target: T1, Activin A (Homo sapiens, UniProt P08476); experiment: Biacore steady-state affinity of ActRIIB-hFc proteins for activin A; type: binding; settings: compared to counterparts lacking the L79D substitution
T1 sequence (P08476 311-426): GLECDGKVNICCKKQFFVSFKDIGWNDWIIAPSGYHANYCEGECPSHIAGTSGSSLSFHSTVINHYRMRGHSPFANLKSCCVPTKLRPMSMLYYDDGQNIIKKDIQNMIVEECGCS
Description: (§1) Affinities of several ligands for ActRIIB(25-131)-hFc and its full-length counterpart ActRIIB(20-134)-hFc were evaluated in vitro with a Biacore™ instrument, and the results are summarized in the table below. Kd values were obtained by steady-state affinity fit due to very rapid association and dissociation of the complex, which prevented accurate determination of kon and koff. ActRIIB(25-131)-hFc bound activin A, activin B, and GDF11 with high affinity.
(§2) The affinity of GDF traps and other ActRIIB-hFc proteins for several ligands was evaluated in vitro with a Biacore™ instrument. Kd values were obtained by steady-state affinity fit due to the very rapid association and dissociation of the complex, which prevented accurate determination of kon and koff.

GDF11 [3] = target: T2, GDF11 (Homo sapiens, UniProt O95390); experiment: Biacore steady-state affinity of ActRIIB-hFc proteins for GDF11; type: binding; settings: compared to counterparts lacking the L79D substitution
T2 sequence (O95390 299-407): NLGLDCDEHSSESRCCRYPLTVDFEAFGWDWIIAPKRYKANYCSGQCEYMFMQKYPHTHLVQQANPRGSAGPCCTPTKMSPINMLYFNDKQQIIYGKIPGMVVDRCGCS
Description: as §1, §2

BMP10 = target: T3, BMP10 (Homo sapiens, UniProt O95393); experiment: Biacore ligand binding of GDF trap, BMP10
T3 sequence (O95393 317-424): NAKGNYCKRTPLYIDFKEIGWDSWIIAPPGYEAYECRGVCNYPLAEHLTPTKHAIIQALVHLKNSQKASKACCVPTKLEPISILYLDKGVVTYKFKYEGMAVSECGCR
Description: as §2

GDF8 [4] = target: T4, GDF8 (Homo sapiens, UniProt O14793); experiment: Biacore ligand binding of GDF trap, GDF8
T4 sequence (O14793 267-375): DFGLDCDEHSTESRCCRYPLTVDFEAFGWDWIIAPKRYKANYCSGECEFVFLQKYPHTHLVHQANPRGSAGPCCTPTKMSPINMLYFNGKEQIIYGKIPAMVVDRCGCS
Description: as §2

Activin B = target: T5, Activin B (Homo sapiens, UniProt P09529); experiment: Biacore steady-state affinity of ActRIIB-hFc proteins for activin B; type: binding; settings: compared to counterparts lacking the L79D substitution
T5 sequence (P09529 293-407): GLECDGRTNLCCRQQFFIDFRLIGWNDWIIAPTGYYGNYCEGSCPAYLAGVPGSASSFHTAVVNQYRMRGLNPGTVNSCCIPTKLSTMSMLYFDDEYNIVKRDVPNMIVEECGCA
Description: as §1, §2

BMP6 = target: T6, BMP6 (Homo sapiens, UniProt P22004); experiment: Biacore ligand binding of GDF trap, BMP6
T6 sequence (P22004 375-513): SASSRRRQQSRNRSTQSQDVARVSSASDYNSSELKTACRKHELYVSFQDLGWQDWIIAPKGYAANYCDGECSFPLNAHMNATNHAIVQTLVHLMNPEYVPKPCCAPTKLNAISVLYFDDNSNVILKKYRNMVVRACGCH
Description: as §2

activin [5] = settings: see U.S. Pat. No. 7,842,663; cited from earlier work
GDF11 [6] = target: T2, GDF11; settings: see U.S. Pat. No. 7,842,663; cited from earlier work
GDF8 [7] = target: T4, GDF8; experiment: A-204 reporter gene assay, inhibition of GDF-8 activity; type: cell-based; set-up: host or cells: added to A-204 cells (human rhabdomyosarcoma)
GDF11 [8] = target: T2, GDF11; experiment: A-204 reporter gene assay, inhibition of GDF-11 signaling; type: cell-based; set-up: host or cells: added to A-204 cells (human rhabdomyosarcoma)
Text: (§3) An A-204 reporter gene assay was used to evaluate the effects of ActRIIB-Fc proteins and GDF traps on signaling by GDF-11 and activin A. Cell line: human rhabdomyosarcoma (derived from muscle). Reporter vector: pGL3(CAGA)12 (described in Dennler et al, 1998, EMBO 17: 3091-3100). The CAGA12 motif is present in TGF-beta responsive genes (e.g., PAI-1 gene), so this vector is of general use for factors signaling through SMAD2 and 3.
(§4) Day 1: Split A-204 cells into 48-well plate.
(§5) Day 2: A-204 cells transfected with 10 ug pGL3(CAGA)12 or pGL3(CAGA)12(10 ug)+pRLCMV (1 μg) and Fugene.
(§6) Day 3: Add factors (diluted into medium+0.1% BSA). Inhibitors need to be preincubated with factors for 1 hr before adding to cells. Six hrs later, cells were rinsed with PBS and lysed.
(§7) This is followed by a luciferase assay.
(§8) Activity of ActRIIB-Fc proteins and GDF traps was tested in a cell-based assay as described above. Some variants were tested in different C-terminal truncation constructs. As discussed above, truncations of five or fifteen amino acids caused reduction in activity.

GDF11 [9] = target: T2, GDF11; experiment: Affinity/binding of ActRIIB-Fc fusion proteins for GDF11; settings: ActRIIB-Fc fusion protein, position 64 variant
GDF8 [10] = target: T4, GDF8; experiment: Biacore assay, receptor captured with anti-hFc antibody, GDF8 injected; type: binding; settings: receptor captured via anti-hFc antibody
Description: (§9) Binding of certain ActRIIB-Fc proteins and GDF traps to ligands was tested in a Biacore™ assay.
(§10) The ActRIIB-Fc variants or wild-type protein were captured onto the system using an anti-hFc antibody. Ligands were injected and flowed over the captured receptor proteins.

Activin A [11] = target: T1, Activin A; experiment: Biacore assay, receptor captured with anti-hFc antibody, activin A injected; type: binding; settings: receptor captured via anti-hFc antibody
Description: as §9, §10

activin [12] = experiment: Affinity/binding of ActRIIB-Fc fusion proteins for activin; settings: ActRIIB-Fc fusion protein, position 64 variant
GDF11 [13] = target: T2, GDF11; experiment: Biacore assay, receptor captured with anti-hFc antibody, GDF11 injected; type: binding; settings: receptor captured via anti-hFc antibody
Description: as §9, §10

Activin A [14] = target: T1, Activin A; experiment: A-204 reporter gene assay, inhibition of activin A signaling; type: cell-based; set-up: host or cells: added to A-204 cells (human rhabdomyosarcoma)
Text: as §3, §4, §5, §6, §7, §8

Serum half-life in rats = type: in vivo
Description: Several variants have been assessed for serum half-life in rats. ActRIIB(20-134)-Fc has a serum half-life of approximately 70 hours. […] Any of the variants tested above, may be combined with the GDF trap molecules.

GDF11 [15] = target: T2, GDF11; settings: ligand coupled to the device; reproduced from WO2006/012627; cited from earlier work

Molecule: C#C[C@]1(O)CC[C@H]2[C@@H]3CCC4=Cc5oncc5C[C@]4(C)[C@H]3CC[C@@]21C [danazol]
anemia response rate [1]: around 20%

activin A binding, in words (Activin A [2]): pronounced loss
GDF11 binding, in words (GDF11 [3]): nearly full retention
binding to BMP10, in words (BMP10): strong to intermediate
binding to GDF8, in words (GDF8 [4]): strong to intermediate
activin B binding, in words (Activin B): partial loss
binding to BMP6, in words (BMP6): strong to intermediate
Molecule: ActRIIB(L79D 25-131)-hFc: GDF trap with truncated ActRIIB extracellular domain (residues 25-131, L79D) fused to human Fc, SEQ ID NO: 50, 53

B1: ActRIIB(20-119)-Fc: ActRIIB-Fc fusion protein containing amino acids 20-119 of SEQ ID NO: 1 (protein)
chain: GRGEAETRECIYYNANWELERTNQSGLERCEGEQDKRLHCYASWRNSSGTIELVKKGCWLDDFNCYDRQECVATEENPQVYFCCCEGNFCNERFTHLPEA
modifications: Fc fusion, Fc no entry
binding to activin relative to ActRIIB(20-134)-Fc (activin [5]): reduced
binding to GDF11 relative to ActRIIB(20-134)-Fc (GDF11 [6]): reduced

inhibition of GDF-8 activity, in words (GDF8 [7]): potent inhibitor
inhibition of GDF-11 activity, in words (GDF11 [8]): potent inhibitor
affinity for GDF11, in words (GDF11 [9]): low nanomolar to high picomolar range
Koff (1/s), GDF8 (GDF8 [10]): 3.45e-05 s⁻¹
Koff (1/s), Activin A (Activin A [11]): 0.000159 s⁻¹
Kon (1/Ms), Activin A (Activin A [11]): 5.94e+06 M⁻¹ s⁻¹
affinity for activin, in words (activin [12]): low nanomolar to high picomolar range
Koff (1/s), GDF11 (GDF11 [13]): 0.000113 s⁻¹
inhibition of activin A activity, in words (Activin A [14]): potent inhibitor
B2: ActRIIB(20-134)-hFc: extracellular domain of human ActRIIB (20-134, R64) fused to human Fc with three-glycine linker, SEQ ID NO: 24 (protein)
chain: GRGEAETRECIYYNANWELERTNQSGLERCEGEQDKRLHCYASWRNSSGTIELVKKGCWLDDFNCYDRQECVATEENPQVYFCCCEGNFCNERFTHLPEAGGPEVTYEPPPTAPTGGGTHTCPPCPAPELLGGPSVFLFPPKPKDTLMISRTPEVTCVVVDVSHEDPEVKFNWYVDGVEVHNAKTKPREEQYNSTYRVVSVLTVLHQDWLNGKEYKCKVSNKALPVPIEKTISKAKGQPREPQVYTLPPSREEMTKNQVSLTCLVKGFYPSDIAVEWESNGQPENNYKTTPPVLDSDGSFFLYSKLTVDKSRWQQGNVFSCSVMHEALHNHYTQKSLSLSPGK

B3: ActRIIB(20-134)-Fc: ActRIIB-Fc fusion protein containing amino acids 20-134 of SEQ ID NO: 1 (protein)
chain: GRGEAETRECIYYNANWELERTNQSGLERCEGEQDKRLHCYASWRNSSGTIELVKKGCWLDDFNCYDRQECVATEENPQVYFCCCEGNFCNERFTHLPEAGGPEVTYEPPPTAPT
modifications: Fc fusion partner without entry
serum half-life (Serum half-life in rats): approximately 70 hours

affinity for GDF11, in words (GDF11 [9]): relatively low affinity
affinity for activin, in words (activin [12]): relatively low affinity
B4: A64 20-134: ActRIIB-Fc fusion protein, residues 20-134, alanine at position 64 (protein)
chain: GRGEAETRECIYYNANWELERTNQSGLERCEGEQDKRLHCYASWANSSGTIELVKKGCWLDDFNCYDRQECVATEENPQVYFCCCEGNFCNERFTHLPEAGGPEVTYEPPPTAPT
modifications: Fc fusion partner without entry

B5: K74A: soluble ActRIIB-Fc variant K74A, data from WO2006/012627 (protein)
chain: SGRGEAETRECIYYNANWELERTNQSGLERCEGEQDKRLHCYASWANSSGTIELVAKGCWLDDFNCYDRQECVATEENPQVYFCCCEGNFCNERFTHLPEA
modifications: left off: a dimerising Fc or GST
GDF11 binding relative to WT (GDF11 [15]): +++++ (~40x increased binding)
